Data from PMC4585563, “Small angle X-ray scattering studies of CTNNBL1 dimerization and CTNNBL1/CDC5L complex” (Scientific Reports, 2015).

Target: the molecule itself
Assay: SEC; Superdex 200 10/300, 500 μl of 2 mg/ml protein, 0.5 ml/min, 40 mM Tris-HCl pH 8.0, 150 mM NaCl; molecular weight from calibration standards

B1: CTNNBL1^Q238A/E278A/E282A (domain or fragment, human, UniProt Q8WYA6 77-563, looked up)
chain: LDESSVKKMILTFEKRSYKNQELRIKFPDNPEKFMESELDLNDIIQEMHVVATMPDLYHLLVELNAVQSLLGLLGHDNTDVSIAVVDLLQELTDIDTLHESEEGAEVLIDALVDGQVVALLVQNLERLDESVKEEADGVHNTLAIVENMAEFRPEMCTEGAAQGLLQWLLKRLKAKMPFDANKLYCSEVLAILLQDNDENRALLGALDGIDVLLQQLSVFKRHNPSTAEEQEMMENLFDSLCSCLMLSSNRERFLKGEGLQLMNLMLREKKISRSSALKVLDHAMIGPEGTDNCHKFVDILGLRTIFPLFMKSPRKIKKVGTTEKEHEEHVCSILASLLRNLRGQQRTRLLNKFTENDSEKVDRLMELHFKYLGAMQVADKKIEGEKHDMVRRGEIIDNDTEEEFYLRRLDAGLFVLQHICYIMAEICNANVPQIRQRVHQILNMRGSSIKIVRHIIKEYAENIGDGRSPEFRENEQKRILGLLENF
notes: human CTNNBL1, residues 77-563, triple-point mutant (ARM III and ARM IV); also called Arm III and Arm IV mutant; source: E. coli, purified as wild-type CTNNBL1; not shown: 6xHis, N-terminal, cleaved; VHb (bacterial hemoglobin), N-terminal, cleaved
**Q.** With B1 as the protein, how does the “stoichiometry N” value read?
**A.** 2

B2: CTNNBL1^I101R (domain or fragment, human, UniProt Q8WYA6 77-563, looked up)
chain: LDESSVKKMILTFEKRSYKNQELRRKFPDNPEKFMESELDLNDIIQEMHVVATMPDLYHLLVELNAVQSLLGLLGHDNTDVSIAVVDLLQELTDIDTLHESEEGAEVLIDALVDGQVVALLVQNLERLDESVKEEADGVHNTLAIVENMAEFRPEMCTEGAQQGLLQWLLKRLKAKMPFDANKLYCSEVLAILLQDNDENRELLGELDGIDVLLQQLSVFKRHNPSTAEEQEMMENLFDSLCSCLMLSSNRERFLKGEGLQLMNLMLREKKISRSSALKVLDHAMIGPEGTDNCHKFVDILGLRTIFPLFMKSPRKIKKVGTTEKEHEEHVCSILASLLRNLRGQQRTRLLNKFTENDSEKVDRLMELHFKYLGAMQVADKKIEGEKHDMVRRGEIIDNDTEEEFYLRRLDAGLFVLQHICYIMAEICNANVPQIRQRVHQILNMRGSSIKIVRHIIKEYAENIGDGRSPEFRENEQKRILGLLENF
notes: human CTNNBL1, residues 77-563, point mutant made by site-directed mutagenesis; source: E. coli, purified as wild-type CTNNBL1; not shown: 6xHis, N-terminal, cleaved; VHb (bacterial hemoglobin), N-terminal, cleaved
**Q.** For B2, which “stoichiometry N” value is on record?
**A.** 2

B3: CTNNBL1^L87R/I101R (domain or fragment, human, UniProt Q8WYA6 77-563, looked up)
chain: LDESSVKKMIRTFEKRSYKNQELRRKFPDNPEKFMESELDLNDIIQEMHVVATMPDLYHLLVELNAVQSLLGLLGHDNTDVSIAVVDLLQELTDIDTLHESEEGAEVLIDALVDGQVVALLVQNLERLDESVKEEADGVHNTLAIVENMAEFRPEMCTEGAQQGLLQWLLKRLKAKMPFDANKLYCSEVLAILLQDNDENRELLGELDGIDVLLQQLSVFKRHNPSTAEEQEMMENLFDSLCSCLMLSSNRERFLKGEGLQLMNLMLREKKISRSSALKVLDHAMIGPEGTDNCHKFVDILGLRTIFPLFMKSPRKIKKVGTTEKEHEEHVCSILASLLRNLRGQQRTRLLNKFTENDSEKVDRLMELHFKYLGAMQVADKKIEGEKHDMVRRGEIIDNDTEEEFYLRRLDAGLFVLQHICYIMAEICNANVPQIRQRVHQILNMRGSSIKIVRHIIKEYAENIGDGRSPEFRENEQKRILGLLENF
notes: human CTNNBL1, residues 77-563, double-point mutant (capping region); also called capping region mutant; source: E. coli, purified as wild-type CTNNBL1; not shown: 6xHis, N-terminal, cleaved; VHb (bacterial hemoglobin), N-terminal, cleaved
**Q.** B3 was tested. Which “stoichiometry N” value did it give?
**A.** 2

B4: CTNNBL1^E282A (domain or fragment, human, UniProt Q8WYA6 77-563, looked up)
chain: LDESSVKKMILTFEKRSYKNQELRIKFPDNPEKFMESELDLNDIIQEMHVVATMPDLYHLLVELNAVQSLLGLLGHDNTDVSIAVVDLLQELTDIDTLHESEEGAEVLIDALVDGQVVALLVQNLERLDESVKEEADGVHNTLAIVENMAEFRPEMCTEGAQQGLLQWLLKRLKAKMPFDANKLYCSEVLAILLQDNDENRELLGALDGIDVLLQQLSVFKRHNPSTAEEQEMMENLFDSLCSCLMLSSNRERFLKGEGLQLMNLMLREKKISRSSALKVLDHAMIGPEGTDNCHKFVDILGLRTIFPLFMKSPRKIKKVGTTEKEHEEHVCSILASLLRNLRGQQRTRLLNKFTENDSEKVDRLMELHFKYLGAMQVADKKIEGEKHDMVRRGEIIDNDTEEEFYLRRLDAGLFVLQHICYIMAEICNANVPQIRQRVHQILNMRGSSIKIVRHIIKEYAENIGDGRSPEFRENEQKRILGLLENF
notes: as for B2
**Q.** How did the “stoichiometry N” value turn out when B4 was run?
**A.** 2

B5: CTNNBL1^L87R (domain or fragment, human, UniProt Q8WYA6 77-563, looked up)
chain: LDESSVKKMIRTFEKRSYKNQELRIKFPDNPEKFMESELDLNDIIQEMHVVATMPDLYHLLVELNAVQSLLGLLGHDNTDVSIAVVDLLQELTDIDTLHESEEGAEVLIDALVDGQVVALLVQNLERLDESVKEEADGVHNTLAIVENMAEFRPEMCTEGAQQGLLQWLLKRLKAKMPFDANKLYCSEVLAILLQDNDENRELLGELDGIDVLLQQLSVFKRHNPSTAEEQEMMENLFDSLCSCLMLSSNRERFLKGEGLQLMNLMLREKKISRSSALKVLDHAMIGPEGTDNCHKFVDILGLRTIFPLFMKSPRKIKKVGTTEKEHEEHVCSILASLLRNLRGQQRTRLLNKFTENDSEKVDRLMELHFKYLGAMQVADKKIEGEKHDMVRRGEIIDNDTEEEFYLRRLDAGLFVLQHICYIMAEICNANVPQIRQRVHQILNMRGSSIKIVRHIIKEYAENIGDGRSPEFRENEQKRILGLLENF
notes: as for B2
**Q.** B5 was tested. Which “stoichiometry N” value did it give?
**A.** 2

B6: CTNNBL1^G148R/Q192R/Q199R (domain or fragment, human, UniProt Q8WYA6 77-563, looked up)
chain: LDESSVKKMILTFEKRSYKNQELRIKFPDNPEKFMESELDLNDIIQEMHVVATMPDLYHLLVELNAVQSLLRLLGHDNTDVSIAVVDLLQELTDIDTLHESEEGAEVLIDALVDGRVVALLVRNLERLDESVKEEADGVHNTLAIVENMAEFRPEMCTEGAQQGLLQWLLKRLKAKMPFDANKLYCSEVLAILLQDNDENRELLGELDGIDVLLQQLSVFKRHNPSTAEEQEMMENLFDSLCSCLMLSSNRERFLKGEGLQLMNLMLREKKISRSSALKVLDHAMIGPEGTDNCHKFVDILGLRTIFPLFMKSPRKIKKVGTTEKEHEEHVCSILASLLRNLRGQQRTRLLNKFTENDSEKVDRLMELHFKYLGAMQVADKKIEGEKHDMVRRGEIIDNDTEEEFYLRRLDAGLFVLQHICYIMAEICNANVPQIRQRVHQILNMRGSSIKIVRHIIKEYAENIGDGRSPEFRENEQKRILGLLENF
notes: human CTNNBL1, residues 77-563, triple-point mutant (ARM I and ARM II); also called ARM I and ARM II mutant; source: E. coli, purified as wild-type CTNNBL1; not shown: 6xHis, N-terminal, cleaved; VHb (bacterial hemoglobin), N-terminal, cleaved
**Q.** With B6 as the protein, how does the “stoichiometry N” value read?
**A.** 2
